These results are taken from publication doi:10.1101/407197.

Like-named read-outs stand apart in the source and are kept apart here.

For series [1], the target named is T1, MIWI (mouse, UniProt Q9JMB7 1-862). In words: EMSA. (In general: Mobility shift assays separate free from complexed probe on a gel.)
For series [2], the target named is T1, MIWI. In words: EMSA. The source holds these as a separate data set.

T1 sequence (Q9JMB7 whole entry): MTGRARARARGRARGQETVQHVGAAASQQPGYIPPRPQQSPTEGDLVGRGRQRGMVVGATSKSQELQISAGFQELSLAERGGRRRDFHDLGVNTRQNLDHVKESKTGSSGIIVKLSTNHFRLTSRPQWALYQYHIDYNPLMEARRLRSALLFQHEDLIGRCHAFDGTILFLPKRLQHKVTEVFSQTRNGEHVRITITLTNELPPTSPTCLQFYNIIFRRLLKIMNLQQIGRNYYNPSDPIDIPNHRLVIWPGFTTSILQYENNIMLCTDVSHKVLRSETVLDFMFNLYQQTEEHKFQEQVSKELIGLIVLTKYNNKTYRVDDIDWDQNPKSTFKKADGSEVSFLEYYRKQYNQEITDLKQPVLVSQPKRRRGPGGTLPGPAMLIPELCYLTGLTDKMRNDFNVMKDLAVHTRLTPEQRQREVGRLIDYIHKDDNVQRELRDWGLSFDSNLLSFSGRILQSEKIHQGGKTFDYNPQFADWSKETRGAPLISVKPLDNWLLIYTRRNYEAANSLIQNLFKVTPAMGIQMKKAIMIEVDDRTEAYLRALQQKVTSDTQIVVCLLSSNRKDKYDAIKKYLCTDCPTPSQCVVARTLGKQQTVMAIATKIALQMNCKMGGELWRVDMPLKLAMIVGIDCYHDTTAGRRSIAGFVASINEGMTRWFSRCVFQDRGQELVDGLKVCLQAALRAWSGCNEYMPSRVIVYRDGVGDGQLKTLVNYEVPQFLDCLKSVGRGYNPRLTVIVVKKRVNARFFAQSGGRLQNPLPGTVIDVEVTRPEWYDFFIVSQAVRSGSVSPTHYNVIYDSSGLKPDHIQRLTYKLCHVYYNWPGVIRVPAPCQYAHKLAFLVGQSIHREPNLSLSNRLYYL

B1: Sly RNA oligonucleotide (putative piRNA) (ssRNA)
RNA: CAGUUAAAGAAAUGCAUGAGAA
B1: the binding result in the series with MIWI [1] was “binds”.

B2: Ssty RNA oligonucleotide (putative piRNA) (ssRNA)
RNA: CCUCAUGAAGAAGAGGAGGAGGA
B2: the binding result with MIWI [1] is reported as “binds”.

B3: piR1 (ssRNA)
RNA: UGACAUGAACACAGGUGCUCAGAUAGCUUU
Turning to B3, the binding result with MIWI [2] was “binds”.
